Consider 61 substances from patent US10280205B2, “Method for treating cancer with an activated T lymphocyte that selectively recognizes a cancer cell consisting of specific peptide” (immatics biotechnologies GmbH, priority 2015, dated 2019).

The target of the test is HLA-A*02:01 (Homo sapiens, UniProt P04439, D140Y/D185E/D98H/E176V/E277Q/G131W/G231S/I119V/I121R/I166T/I218V/L300P/L318F/N151K/N90K/P208A/P217A/Q86G/Q94H/R138H/R169H/T345S). The experiment in a line: MHC binding assay: UV-ligand exchange with beta2m ELISA (exchange yield). The settings on record: binding to HLA-A*02:01, β2m ELISA. A digest of the protocol: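 Exchange yield reflects how much β2m remains bound, measured by ELISA: streptavidin capture of 100-fold diluted monomers, HRP anti-β2m at 37° C. for 1 h, TMB read at 450 nm. Monomers come from UV cleavage of a conditional HLA-A*02:01 ligand in the presence of the candidate peptide.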
Background: An ELISA detects its analyte on a solid surface through an enzyme-linked reagent.
In the case of “276 (ALFTFSPLTV; listed as Homo sapiens) [compound 276]”, the “Peptide exchange (MHC class I binding score, peptide exchange yield)” value (“Peptide exchange” below) was ““+++” (≥50 = +++)”.

On to “277 (LLPPLESLATV; listed as Homo sapiens) [compound 277]”, for which the “Peptide exchange” value is reported as ““++” (≥20% = ++)”.

Regarding “278 (QLLDVVLTI; listed as Homo sapiens) [compound 278]”, the “Peptide exchange” value was ““++” (≥20% = ++)”.

“279 (ALWGGTQPLL; listed as Homo sapiens) [compound 279]”: the “Peptide exchange” value was ““++” (≥20% = ++)”.

For “280 (VLPDPEVLEAV; listed as Homo sapiens) [compound 280]”, the “Peptide exchange” value was ““+++” (≥50 = +++)”.

In the case of “281 (ILRESTEEL; listed as Homo sapiens) [compound 281]”, the “Peptide exchange” value was ““+++” (≥50 = +++)”.

Turning to “282 (LLADVVPTT; listed as Homo sapiens) [compound 282]”, the “Peptide exchange” value is recorded as ““+++” (≥50 = +++)”.

In the case of “284 (ILLSQTTGV; listed as Homo sapiens) [compound 284]”, the “Peptide exchange” value is given as ““+++” (≥50 = +++)”.

Regarding “285 (QLLHVGVTV; listed as Homo sapiens) [compound 285]”, the “Peptide exchange” value is recorded as ““+++” (≥50 = +++)”.

Take “286 (YLFPGIPEL; listed as Homo sapiens) [compound 286]”: the “Peptide exchange” value is listed as ““+++” (≥50 = +++)”.

Consider “287 (FLNEFFLNV; listed as Homo sapiens) [compound 287]”, for which the “Peptide exchange” value was ““+++” (≥50 = +++)”.

As for “288 (NLINEINGV; listed as Homo sapiens) [compound 288]”, the “Peptide exchange” value was ““+++” (≥50 = +++)”.

With “289 (VLLEIEDLQV; listed as Homo sapiens) [compound 289]”, the “Peptide exchange” value was ““++++” (≥75% = ++++)”.

“295 (VLDRESPNV; listed as Homo sapiens) [compound 295]”: the “Peptide exchange” value is recorded as ““+++” (≥50 = +++)”.

Turning to “296 (FMEGAIIYV; listed as Homo sapiens) [compound 296]”, the “Peptide exchange” value was ““+++” (≥50 = +++)”.

With “297 (VLADIELAQA; listed as Homo sapiens) [compound 297]”, the “Peptide exchange” value was ““+++” (≥50 = +++)”.

As for “298 (VMITKLVEV; listed as Homo sapiens) [compound 298]”, the “Peptide exchange” value is recorded as ““+++” (≥50 = +++)”.

For “299 (YLLETSGNL; listed as Homo sapiens) [compound 299]”, the “Peptide exchange” value is ““+++” (≥50 = +++)”.

For the substance “300 (ALLGQTFSL; listed as Homo sapiens) [compound 300]”, the “Peptide exchange” value is on record as ““+++” (≥50 = +++)”.

“301 (FLVEDLVDSL; listed as Homo sapiens) [compound 301]”: the “Peptide exchange” value is listed as ““+++” (≥50 = +++)”.

As for “302 (ALLQEGEVYSA; listed as Homo sapiens) [compound 302]”, the “Peptide exchange” value was ““+++” (≥50 = +++)”.

As for “303 (AILPQLFMV; listed as Homo sapiens) [compound 303]”, the “Peptide exchange” value was ““++++” (≥75% = ++++)”.

For “304 (MTLGQIYYL; listed as Homo sapiens) [compound 304]”, the “Peptide exchange” value is ““+++” (≥50 = +++)”.

Turning to “305 (SIANFSEFYV; listed as Homo sapiens) [compound 305]”, the “Peptide exchange” value is listed as ““++++” (≥75% = ++++)”.

For the substance “306 (ALVNVQIPL; listed as Homo sapiens) [compound 306]”, the “Peptide exchange” value is given as ““+++” (≥50 = +++)”.

With “307 (ALPVSLPQI; listed as Homo sapiens) [compound 307]”, the “Peptide exchange” value is on record as ““+++” (≥50 = +++)”.

Regarding “308 (SQYSGQLHEV; listed as Homo sapiens) [compound 308]”, the “Peptide exchange” value is ““+++” (≥50 = +++)”.

Regarding “309 (GLFDGVPTTA; listed as Homo sapiens) [compound 309]”, the “Peptide exchange” value is ““+++” (≥50 = +++)”.

In the case of “310 (FLVDTPLARA; listed as Homo sapiens) [compound 310]”, the “Peptide exchange” value is on record as ““++++” (≥75% = ++++)”.

Turning to “311 (RLYTGMHTV; listed as Homo sapiens) [compound 311]”, the “Peptide exchange” value is on record as ““+++” (≥50 = +++)”.

In the case of “312 (IISDLTIAL; listed as Homo sapiens) [compound 312]”, the “Peptide exchange” value is on record as ““+++” (≥50 = +++)”.

Consider “313 (VLFDDELLMV; listed as Homo sapiens) [compound 313]”, for which the “Peptide exchange” value was ““+++” (≥50 = +++)”.

In the case of “314 (ALIAEGIALV; listed as Homo sapiens) [compound 314]”, the “Peptide exchange” value is on record as ““+++” (≥50 = +++)”.

Take “315 (YLQDVVEQA; listed as Homo sapiens) [compound 315]”: the “Peptide exchange” value is listed as ““+++” (≥50 = +++)”.

For the substance “316 (ILLERLWYV; listed as Homo sapiens) [compound 316]”, the “Peptide exchange” value is reported as ““+++” (≥50 = +++)”.

On to “317 (SLAALVVHV; listed as Homo sapiens) [compound 317]”, for which the “Peptide exchange” value is ““+++” (≥50 = +++)”.

For “318 (GLINTGVLSV; listed as Homo sapiens) [compound 318]”, the “Peptide exchange” value is on record as ““++” (≥20% = ++)”.

“320 (KMFEFVEPLL; listed as Homo sapiens) [compound 320]”: the “Peptide exchange” value is listed as ““++++” (≥75% = ++++)”.

As for “321 (GLFEDVTQPGILL; listed as Homo sapiens) [compound 321]”, the “Peptide exchange” value is given as ““++++” (≥75% = ++++)”.

Take “322 (TLMTSLPAL; listed as Homo sapiens) [compound 322]”: the “Peptide exchange” value is ““+++” (≥50 = +++)”.

As for “324 (FLYDEIEAEV; listed as Homo sapiens) [compound 324]”, the “Peptide exchange” value is recorded as ““+++” (≥50 = +++)”.

Consider “325 (FIMPATVADATAV; listed as Homo sapiens) [compound 325]”, for which the “Peptide exchange” value is given as ““+++” (≥50 = +++)”.

For “326 (FLPEALDFV; listed as Homo sapiens) [compound 326]”, the “Peptide exchange” value was ““+++” (≥50 = +++)”.

For “327 (GLAPFTEGISFV; listed as Homo sapiens) [compound 327]”, the “Peptide exchange” value is given as ““+++” (≥50 = +++)”.

As to “328 (ALNDQVFEI; listed as Homo sapiens) [compound 328]”, the “Peptide exchange” value is ““+++” (≥50 = +++)”.

Turning to “329 (FLVTLNNVEV; listed as Homo sapiens) [compound 329]”, the “Peptide exchange” value was ““++++” (≥75% = ++++)”.

Turning to “330 (QLALKVEGV; listed as Homo sapiens) [compound 330]”, the “Peptide exchange” value was ““+++” (≥50 = +++)”.

For the substance “331 (KVDTVWVNV; listed as Homo sapiens) [compound 331]”, the “Peptide exchange” value is recorded as ““+++” (≥50 = +++)”.

Regarding “332 (YLISELEAA; listed as Homo sapiens) [compound 332]”, the “Peptide exchange” value is listed as ““+++” (≥50 = +++)”.

As to “333 (FLPDANSSV; listed as Homo sapiens) [compound 333]”, the “Peptide exchange” value is reported as ““++” (≥20% = ++)”.

As for “334 (TLTKVLVAL; listed as Homo sapiens) [compound 334]”, the “Peptide exchange” value is given as ““+++” (≥50 = +++)”.

For “335 (YSLSSVVTV; listed as Homo sapiens) [compound 335]”, the “Peptide exchange” value was ““+++” (≥50 = +++)”.

Turning to “336 (ILLTAIVQV; listed as Homo sapiens) [compound 336]”, the “Peptide exchange” value was ““+++” (≥50 = +++)”.

For “337 (HLLSELEAAPYL; listed as Homo sapiens) [compound 337]”, the “Peptide exchange” value was ““++++” (≥75% = ++++)”.

For “339 (GLWEIENNPTVKA; listed as Homo sapiens) [compound 339]”, the “Peptide exchange” value is ““++++” (≥75% = ++++)”.

With “340 (ALLSMTFPL; listed as Homo sapiens) [compound 340]”, the “Peptide exchange” value is given as ““++++” (≥75% = ++++)”.

For the substance “341 (SQIALNEKLVNL; listed as Homo sapiens) [compound 341]”, the “Peptide exchange” value is ““+++” (≥50 = +++)”.

Turning to “342 (HIYDKVMTV; listed as Homo sapiens) [compound 342]”, the “Peptide exchange” value is ““+++” (≥50 = +++)”.

“343 (SLLEVNEESTV; listed as Homo sapiens) [compound 343]”: the “Peptide exchange” value is recorded as ““+++” (≥50 = +++)”.

For the substance “344 (YLQDQHLLLTV; listed as Homo sapiens) [compound 344]”, the “Peptide exchange” value is ““+++” (≥50 = +++)”.

On to “345 (VIWKALIHL; listed as Homo sapiens) [compound 345]”, for which the “Peptide exchange” value is listed as ““+++” (≥50 = +++)”.
